Test results published in patent publication US20140031294A1 (NOVOZYMES BIOPHARMA UK, published 2014).

Target: transferrin receptor on human erythroleukemic K562 cells (human, UniProt P02786 1-760)
Test: cell-based or functional assay

Sequence of transferrin receptor on human erythroleukemic K562 cells (P02786 whole entry): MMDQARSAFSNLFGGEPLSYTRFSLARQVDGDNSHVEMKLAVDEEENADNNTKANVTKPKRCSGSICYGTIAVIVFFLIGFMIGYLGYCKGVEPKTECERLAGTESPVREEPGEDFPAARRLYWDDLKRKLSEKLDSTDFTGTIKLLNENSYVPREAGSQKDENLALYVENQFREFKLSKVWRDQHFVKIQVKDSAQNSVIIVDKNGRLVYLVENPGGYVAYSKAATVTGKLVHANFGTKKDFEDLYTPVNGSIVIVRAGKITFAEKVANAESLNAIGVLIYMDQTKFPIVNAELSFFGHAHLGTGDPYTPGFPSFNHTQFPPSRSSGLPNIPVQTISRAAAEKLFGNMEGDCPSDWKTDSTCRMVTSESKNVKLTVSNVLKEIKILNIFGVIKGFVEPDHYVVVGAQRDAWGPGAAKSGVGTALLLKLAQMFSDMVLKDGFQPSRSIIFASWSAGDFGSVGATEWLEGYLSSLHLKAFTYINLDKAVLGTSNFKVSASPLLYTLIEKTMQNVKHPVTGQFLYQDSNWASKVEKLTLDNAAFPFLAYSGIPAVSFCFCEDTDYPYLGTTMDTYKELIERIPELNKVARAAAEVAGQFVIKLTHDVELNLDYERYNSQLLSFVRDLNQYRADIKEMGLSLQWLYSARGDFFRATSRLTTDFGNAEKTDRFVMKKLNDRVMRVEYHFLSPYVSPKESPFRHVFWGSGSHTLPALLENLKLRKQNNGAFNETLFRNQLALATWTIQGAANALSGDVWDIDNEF

B1: recombinant transferrin (N413Q, N611Q) (ligand)
chain: VPDKTVRWCAVSEHEATKCQSFRDHMKSVIPSDGPSVACVKKASYLDCIRAIAANEADAVTLDAGLVYDAYLAPNNLKPVVAEFYGSKEDPQTFYYAVAVVKKDSGFQMNQLRGKKSCHTGLGRSAGWNIPIGLLYCDLPEPRKPLEKAVANFFSGSCAPCADGTDFPQLCQLCPGCGCSTLNQYFGYSGAFKCLKDGAGDVAFVKHSTIFENLANKADRDQYELLCLDNTRKPVDEYKDCHLAQVPSHTVVARSMGGKEDLIWELLNQAQEHFGKDKSKEFQLFSSPHGKDLLFKDSAHGFLKVPPRMDAKMYLGYEYVTAIRNLREGTCPEAPTDECKPVKWCALSHHERLKCDEWSVNSVGKIECVSAETTEDCIAKIMNGEADAMSLDGGFVYIAGKCGLVPVLAENYQKSDNCEDTPEAGYFAVAVVKKSASDLTWDNLKGKKSCHTAVGRTAGWNIPMGLLYNKINHCRFDEFFSEGCAPGSKKDSSLCKLCMGSGLNLCEPNNKEGYYGYTGAFRCLVEKGDVAFVKHQTVPQNTGGKNPDPWAKNLNEKDYELLCLDGTRKPVEEYANCHLARAPNHAVVTRKDKEACVHKILRQQQHLFGSQVTDCSGNFCLFRSETKDLLFRDDTVCLAKLHDRNTYEKYLGEEYVKAVGNLRKCSTSSLLEACTFRRP
Apparent Affinity (competition against 55Fe uptake from labelled plasma transferrin by K562 cells): 123 nM
